Patent US20080286310A1

Target: Translocated intimin receptor Tir of EHEC O157:H7 (enterohemorrhagic Escherichia coli O157:H7) (UniProt Q7DB77)
Experiment: cell-based or functional assay

Chain of UniProt Q7DB77 (Q7DB77 whole entry): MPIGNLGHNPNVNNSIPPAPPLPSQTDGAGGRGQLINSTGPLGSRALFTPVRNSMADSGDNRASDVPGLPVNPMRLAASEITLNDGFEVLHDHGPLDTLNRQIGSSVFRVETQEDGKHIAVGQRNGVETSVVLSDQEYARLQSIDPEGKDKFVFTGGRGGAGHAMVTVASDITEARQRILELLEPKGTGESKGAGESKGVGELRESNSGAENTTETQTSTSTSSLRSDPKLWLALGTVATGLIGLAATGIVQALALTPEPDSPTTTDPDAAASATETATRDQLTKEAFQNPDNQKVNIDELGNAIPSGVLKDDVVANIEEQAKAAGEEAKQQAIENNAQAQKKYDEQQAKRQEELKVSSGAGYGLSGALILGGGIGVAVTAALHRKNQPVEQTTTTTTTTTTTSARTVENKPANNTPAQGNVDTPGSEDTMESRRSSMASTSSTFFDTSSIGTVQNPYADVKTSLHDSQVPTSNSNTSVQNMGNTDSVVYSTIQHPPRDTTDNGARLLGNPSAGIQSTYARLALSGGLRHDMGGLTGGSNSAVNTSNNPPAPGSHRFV

Native intimin of EHEC O157:H7 strain 86-24 (from UniProt P43261 40-934)
microcolonies on HeLa cells (percent of cells): 47%
